Results reported in US11994512B2, “Single-cell genomic methods to generate ex vivo cell systems that recapitulate in vivo biology with improved fidelity” (Massachusetts Institute of Technology, priority 2018, dated 2024).

B1: Q6DI86 (protein, UniProt Q6DI86 1-829, looked up)
chain: MFRLRSISLLSWRAFPLRPFSCESLITQMQKCTNEEQVFDLIETNTATLSEQQVGCAFNVLWQFQKQKTVLEKNVDHVRNHPQFLTLCSITTNHIPAMSDATLVDVLYSIKQFAVESHHPLIEALVTEAWKRLERFDTNVLSIFSTCLADQHLYFSPLMGKIADIVNRRLETIQDLRALSVLMVSISSLISPCFQERLVIRTELLFDTVNSSKVNIARRILLFLRNVKYSHYPLLERCNQVFIRNMSHLDLESISKILNLYQFLQFHSFEFVEAARGRLAEMTLPSDHPESFVRLFAALGPVARPEIKKQLKSTILLLSEELSSQQALIVLGAMEDMESRNSHLLKKIVSVLYKHLDNYKSIELLKIIQALTFLHFQSKELFMKLRELLLSRLEASVIPSEISVLVSALSMLPHPHLSETAVSRIEAVLPQCDFRELNDLVVYLMRWIQSDLVCLASTTGKQLDLLQKLDQLGRHRLQQSTNLDLLWEELKSLKGEWLHESLVEESIAALLRFMDEIDYSNIAKVASFLSRTNYLNTLLLDRIASVAIQQVEKIHPFSVLAIILPFSILNYDPPQKDEFFGACVQCCNSYLGTLDPGTLVFLGFSLAVLEYFPEDLLKKMFNIEFLARLDSQLEILPSSLSARIQFRLMELNRAVCLECPELQVPWFHDRFCQRQFNKDTGVMNGAQQQIYKMLAEVLGGHQCVKPSALSPYYHTVGFECILDKRKKPLPYESHSIAPRKSLGMHWDSRVEPRLPPEAERIAIELLDVRAFCSNIPHLKGKSAMKKRHLEILGYRVIQIPYFEWNSMAMSTKDARMDYLREHLFGEGKS
modifications: full-length
B2: Q64669 (protein, UniProt Q64669 1-274, looked up)
chain: MAARRALIVLAHSEKTSFNYAMKEAAVEALKKRGWEVLESDLYAMNFNPIISRNDITGELKDSKNFQYPSESSLAYKEGRLSPDIVAEHKKLEAADLVIFQFPLQWFGVPAILKGWFERVLVAGFAYTYAAMYDNGPFQNKKTLLSITTGGSGSMYSLQGVHGDMNVILWPIQSGILRFCGFQVLEPQLVYSIGHTPPDARMQILEGWKKRLETVWEETPLYFAPSSLFDLNFQAGFLMKKEVQEEQKKNKFGLSVGHHLGKSIPADNQIKARK
modifications: full-length
B3: Q6J9G1 (protein, UniProt Q6J9G1 1-429, looked up)
chain: MGEKGHLSRVLLECSLSDKLCVVREKQYEVIIVPALLVGGFLILLAIILWLFIRGQRSQRQSPGPRGTASVPASRGRSQEAAGHGEKVLLPLKETSVEGFLRAATPRLAKLQVPREQLLEVLEQIHSGSCGTLYHATMTTKDHPKPKSVVLKALEDPVGLQEVQDFIGRIQFYQYLGKHKNLVQLEGCCTERLPLYMMLEDVVPGDLLSFLWTCRRDVMTMDGLLYDLTEKQIYHIGKQILLALEFLQEKHLFHGDVAARNILIQSDLTPKLCHLGLAYEVHAHGAISSARSSTIPLKWLAPERLLLRPASIRGDIWSFGILLYEMVTLGAPPYPEVPPTSILQYLQRKKIMKRPSSCSHAMYNIMKCCWRWSEDSRPLLGQLLQRLEAASRSADDKAVLQVPELVVPELYADVAGIRAESISYSFSVL
modifications: full-length

System: intracellular proteome of ENR+CD and ENR organoids
Test: LC-MS/MS TMT proteomics of ENR+CD versus ENR organoids
Type: cell-based, C57BL/6 mice
Conditions: for Average logFC: ENR+CD versus ENR organoids, sample pairs in aggregate (n=4, 2 technical replicates from two biological donors); for M1-1 Log2 Median Normalized / M1-2 Log2 Median Normalized / M2-1 Log2 Median Normalized / M2-2 Log2 Median Normalized: protein abundance ratio ENR+CD versus ENR organoids, LC-MS/MS TMT proteomics; for M1-1 Log2 Median Normalized: sample pair M1-1; for M1-2 Log2 Median Normalized: sample pair M1-2; for M2-1 Log2 Median Normalized: sample pair M2-1; for M2-2 Log2 Median Normalized: sample pair M2-2; for change: up = enriched in ENR+CD, down = enriched in ENR, FDR<0.05 and log fold change cut-off

Molecule | Average logFC | M1-1 Log2 Median Normalized | M1-2 Log2 Median Normalized | M2-1 Log2 Median Normalized | M2-2 Log2 Median Normalized | change
B1 | 1.459 | 1.46 | 1.066 | 1.4225 | 2.251 | up
B2 | −1.573 | −1.603 | −2.001 | −1.5715 | −0.844 | down
B3 | 1.195 | 1.631 | 1.194 | 0.7015 | 1.233 | up
